# Laboratory results published in publication PMC3949306.
# What was measured:
# [1] = target: PP2A-B55 heterotrimer (B55 isoform not named for the experiment) (not stated | human (endogenous in HEK293)) (UniProt P63151)
# [2] = target: PP2A-B55 heterotrimer (B55 isoform not named for the experiment) (not stated | human (endogenous in HEK293)) (UniProt P63151); test: inhibition of phosphatase activity, IC50 converted to Kd; PP2A-B55 at 0.125 nM, radioactive CDKS substrate at 5 μM, varying thiophosphorylated Endos; Kd calculated from the IC50 according to the equation of Sasaki et al. (1994) and Takai et al. (1995)
# [3] = target: PP2A-B55α heterotrimer (not stated | human (endogenous in HEK293)) (UniProt P63151)
# [4] = target: PP2A-B55 heterotrimer (B55 isoform not named for the experiment) (not stated | human (endogenous in HEK293)) (UniProt P63151); test: rate constants calculated from constants of phosphatase activity assays; kon and koff determined from the experimentally measured Kd (for thiophosphorylated Endos) and kcat; used for the theoretical time-course of Figure 10A
# [5] = target: PP2A-B55 heterotrimer (B55 isoform not named for the experiment) (not stated | human (endogenous in HEK293)) (UniProt P63151); remark: listed apart in the source
# UniProt P63151, sequence (P63151 whole entry, chain 1 of 3, canonical isoform): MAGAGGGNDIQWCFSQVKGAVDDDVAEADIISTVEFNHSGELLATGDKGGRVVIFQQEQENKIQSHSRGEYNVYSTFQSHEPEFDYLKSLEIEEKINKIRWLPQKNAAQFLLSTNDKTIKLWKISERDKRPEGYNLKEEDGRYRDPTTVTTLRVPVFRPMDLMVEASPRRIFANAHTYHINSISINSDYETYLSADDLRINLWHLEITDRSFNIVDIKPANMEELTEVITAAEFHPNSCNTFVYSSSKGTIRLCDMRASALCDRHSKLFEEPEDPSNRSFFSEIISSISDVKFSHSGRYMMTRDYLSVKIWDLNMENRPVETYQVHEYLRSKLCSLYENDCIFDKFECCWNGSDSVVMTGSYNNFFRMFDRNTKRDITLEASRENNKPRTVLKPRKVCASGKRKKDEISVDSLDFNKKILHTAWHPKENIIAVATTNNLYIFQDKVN
# UniProt P63151, sequence (P30153 whole entry, chain 2 of 3, further chain, canonical isoform): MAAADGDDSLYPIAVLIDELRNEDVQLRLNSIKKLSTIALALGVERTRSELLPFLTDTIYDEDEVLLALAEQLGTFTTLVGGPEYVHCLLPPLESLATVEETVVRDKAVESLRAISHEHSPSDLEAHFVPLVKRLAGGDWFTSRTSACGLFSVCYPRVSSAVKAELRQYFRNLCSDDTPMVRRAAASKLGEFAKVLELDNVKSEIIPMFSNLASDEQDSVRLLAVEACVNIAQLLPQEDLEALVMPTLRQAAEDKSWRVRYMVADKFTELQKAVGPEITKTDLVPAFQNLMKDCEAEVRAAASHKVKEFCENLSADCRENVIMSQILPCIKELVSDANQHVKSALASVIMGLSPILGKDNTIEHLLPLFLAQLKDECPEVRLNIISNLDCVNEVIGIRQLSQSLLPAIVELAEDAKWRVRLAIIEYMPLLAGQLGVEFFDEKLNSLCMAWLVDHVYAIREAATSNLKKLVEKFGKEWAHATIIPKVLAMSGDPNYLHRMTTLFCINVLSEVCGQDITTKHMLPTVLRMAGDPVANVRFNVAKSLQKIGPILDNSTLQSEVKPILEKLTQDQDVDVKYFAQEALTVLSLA
# UniProt P63151, sequence (P67775 whole entry, chain 3 of 3, further chain, canonical isoform): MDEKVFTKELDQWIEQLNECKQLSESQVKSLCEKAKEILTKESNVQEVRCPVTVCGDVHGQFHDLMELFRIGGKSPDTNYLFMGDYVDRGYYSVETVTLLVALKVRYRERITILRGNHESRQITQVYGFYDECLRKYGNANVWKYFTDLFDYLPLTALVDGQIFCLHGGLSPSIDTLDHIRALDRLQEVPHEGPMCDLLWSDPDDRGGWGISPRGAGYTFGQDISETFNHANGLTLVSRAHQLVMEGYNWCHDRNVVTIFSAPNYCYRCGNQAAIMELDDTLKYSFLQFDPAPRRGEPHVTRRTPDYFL
binder,measurement,setting,value
"Xenopus Endosulfine thiophosphorylated by Gwl kinase (natural protein, thiophosphorylated by Gwl in the presence of 1 mM ATP-[γ]-35S instead of ATP) MSDKYIGDSHLEETGEEKQDSQEKEAVTPEKAEEQKLKAKYPNLGQKPGGSDFLMKRLQKGQKYFDSGDYNMAKAKIKNKQLPCAGPDKNLVTGDHIPTPQDLPQRKSSLVTSKLAGHVEDLHHV",IC50 of inhibition of PP2A-B55's anti-CDKS activity (dephosphorylation of radioactive pCDKS),[1],197 pM
same,Kd,[2],0.12 nM
unphosphorylated Xenopus Endosulfine (natural protein) MSDKYIGDSHLEETGEEKQDSQEKEAVTPEKAEEQKLKAKYPNLGQKPGGSDFLMKRLQKGQKYFDSGDYNMAKAKIKNKQLPCAGPDKNLVTGDHIPTPQDLPQRKSSLVTSKLAGHVEDLHHV,IC50 of inhibition of PP2A-B55's anti-CDKS activity (dephosphorylation of radioactive pCDKS),[1],566 nM
phosphomimetic Drosophila Endos (S68D) (natural protein) MSSAEENSNSPATTPQDTETTEQANLTDLEKIEEEKLKSKYPSGMRVPGGHSAFLQKRLQKGQKFFDDGDYQMAKQKGGGVKQVFANKVTTGEAIPTPETVPARKTSIIQPCNKFPATS,IC50 of inhibition of the anti-CDKS activity of purified PP2A-B55α (Figure 6D),[3],500 nM
"Gwl-phosphorylated Xenopus Endosulfine (pEndos) (natural protein, phosphorylated in vitro by Gwl kinase at the Gwl site (32P-labelled or non-radioactive); between 0.5 and 1.0 phosphate per mole of protein) MSDKYIGDSHLEETGEEKQDSQEKEAVTPEKAEEQKLKAKYPNLGQKPGGSDFLMKRLQKGQKYFDSGDYNMAKAKIKNKQLPCAGPDKNLVTGDHIPTPQDLPQRKSSLVTSKLAGHVEDLHHV",koff,[4],0.0068 s⁻¹
same,"Km of pEndos for PP2A-B55, best fit to the time course of pCDKS dephosphorylation with 16 nM unlabeled pEndos (Figure 8B)",[5],0.47 nM
